Biological target: otc_yeast ARG3 (UniProt P05150)
Sequence (P05150 whole entry): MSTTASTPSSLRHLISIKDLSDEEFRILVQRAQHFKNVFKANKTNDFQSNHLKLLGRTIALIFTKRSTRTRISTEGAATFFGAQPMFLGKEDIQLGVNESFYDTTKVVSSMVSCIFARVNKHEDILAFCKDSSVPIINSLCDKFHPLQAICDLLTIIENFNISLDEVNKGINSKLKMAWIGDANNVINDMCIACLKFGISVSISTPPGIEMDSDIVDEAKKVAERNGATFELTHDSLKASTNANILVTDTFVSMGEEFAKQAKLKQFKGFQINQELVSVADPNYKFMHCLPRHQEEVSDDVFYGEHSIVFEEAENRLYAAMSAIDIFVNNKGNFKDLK

Arginase (Saccharomyces cerevisiae), P00812 C321R;C326T, sequence (P00812 whole entry C321R/C326T): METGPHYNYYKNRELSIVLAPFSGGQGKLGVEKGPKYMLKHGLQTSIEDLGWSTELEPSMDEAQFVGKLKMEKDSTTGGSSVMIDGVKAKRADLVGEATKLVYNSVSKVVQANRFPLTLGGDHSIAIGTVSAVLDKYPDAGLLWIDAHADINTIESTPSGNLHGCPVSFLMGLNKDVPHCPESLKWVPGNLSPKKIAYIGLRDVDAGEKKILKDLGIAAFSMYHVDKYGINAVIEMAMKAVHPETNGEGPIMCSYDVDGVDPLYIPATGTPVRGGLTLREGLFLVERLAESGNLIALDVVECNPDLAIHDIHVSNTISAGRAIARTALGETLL

Arginase (Saccharomyces cerevisiae), P00812 C321R;C326T
effect of a mutation on the interaction: decreasing interaction
